Source: patent publication US20230293705A1, “NANOPARTICLES INCLUDING A GLATIRAMOID USEFUL IN POLYNUCLEOTIDE DELIVERY” (King AbdulAziz University, priority 2017, published 2023)
No end group written: not given here.

Assays:
pDNA (pGL3) = experiment: Agarose gel electrophoresis of polycation-pDNA nanoparticles; type: physicochemical; details: for immobilization of pDNA in agarose gel: N/P ratio of 0.5
Method: Nanoparticle Formation. GA-pDNA nanoparticles, K100-pDNA nanoparticles, and K9-pDNA nanoparticles were prepared by adding 15 µL of the GA, K100, or K9 solutions at polymer nitrogen to pDNA phosphate ([…]) of pDNA (TAE Buffer (1x) was used as a solution for DNA storage), followed by repeated pipetting for 20-25 seconds. At that point, 15 µL of CaCl2 (0 or 38 mmol/L) was added to determine the effect of calcium. After formulating, samples were stored at 4° C. for ~20 minutes. PEI-pDNA nanoparticles were prepared by adding 15 µL of PEI solution (N/P ratio of 10) to 10 µL (0.1 µg/µL) of pDNA followed by pipetting for 20-25 seconds. After preparing PEI-pDNA nanoparticles, they were stored at 4° C. for ~20 minutes. All nanoparticles in this study were prepared immediately before each experiment.
Agarose Gel Electrophoresis. GA-pDNA nanoparticles, K100-pDNA nanoparticles, and K9-pDNA nanoparticles were prepared as defined above and subsequently, 4 µL of Tris-acetate-EDTA (TAE) buffer was added. Then, 4 µL of SYBR Green 1 was mixed with the nanoparticles. Afterward, the mixture was stored at 4° C. for 20-25 minutes. Then, 7 µL of 6X DNA loading dye (Takara Bio Inc., Japan) was added. A one kb DNA ladder (Promega, Madison, WI) was used. The mixture solutions were loaded onto a 1% agarose gel, and electrophoresed for 30 minutes at 110 V.

A549 cells = experiment: MTS cytotoxicity assay in A549 cells; type: cell-based, human
Method: (§1) Cytotoxicity Assay. Cytotoxicity of GA, K100, and K9, PEI, and CaCl2 was determined using a Cell Titer 96® AQueous Non-Radioactive Cell Proliferation Assay (MTS) obtained from Promega (Madison, Wisconsin). A549 and HeLa cells were cultured in a 96-well plate as described previously. Cells were treated with the samples for ~24 hours. Then, the media were replaced with a mixture of 100 µL of fresh serum medium and 20 µL of MTS. The plate was incubated for 3-4 hours in the incubator. To determine cell viability, the absorbance of each well was measured by a microplate reader (SpectraMax; Molecular Devices Crope, CA) at 490 nm and normalized to untreated control cells.

HeLa cells = experiment: MTS cytotoxicity assay in HeLa cells; type: cell-based, human; details: ~24 hours treatment
Method: as §1

Molecule | immobilization of pDNA in agarose gel (pDNA (pGL3)) | complexation of pDNA in agarose gel (pDNA (pGL3); N/P ratio of 1) | cytotoxicity (A549 cells; up to 1 mg/mL, cell line not stated at the place (A549 and HeLa tested)) | cytotoxicity (MTS) (A549 cells; A549 cells, ~24 hours treatment) | cytotoxicity (MTS) (HeLa cells)
K9: KKKKKKKKK (SEQ ID NO: 1), C-terminal amide, Mw = 1170.65 Da (KKKKKKKKK-NH2) | did not | did not completely complex pDNA | – | – | –
Glatiramer Acetate [GA] | able to immobilize pDNA completely | – | negligible cytotoxicity | – | –
K100: (KKKKKKKKKK)n=10 (SEQ ID NO: 2), Mw = 16,000 Da, high molecular weight polylysine (ten repeats of SEQ ID NO:2 motif) KKKKKKKKKKKKKKKKKKKKKKKKKKKKKKKKKKKKKKKKKKKKKKKKKKKKKKKKKKKKKKKKKKKKKKKKKKKKKKKKKKKKKKKKKKKKKKKKKKKK | able to immobilize pDNA completely | – | – | highly cytotoxic at low concentrations | highly cytotoxic at low concentrations
